Each block holds one sequence with its values, some of them ahead of it.
Tests used:
HLA-A*02:01 = test: IEDB peptide-MHC binding, purified MHC/competitive/fluorescence; filed as Kd, often an IC50 or EC50 that approximates it; ≥ and ≤ were set here for values at or beyond the usual limits of such assays
HLA-A*02:03 [1] = test: as above
HLA-A*02:11 [2] = test: as above
HLA-A*02:12 [3] = test: as above
HLA-A*02:16 [4] = test: as above
HLA-A*02:19 [5] = test: as above
HLA-A*03:01 [6] = test: as above
HLA-A*23:01 = test: as above
HLA-A*24:03 [7] = test: as above
HLA-A*26:01 [8] = test: as above
HLA-A*29:02 = test: as above
HLA-A*68:02 [9] = test: as above
HLA-A*69:01 = test: as above
HLA-B*15:01 = test: as above
HLA-B*15:17 = test: as above
HLA-B*18:01 = test: as above
HLA-B*27:03 = test: as above
HLA-B*39:01 = test: as above
HLA-B*46:01 = test: as above
HLA-B*51:01 = test: as above
HLA-B*57:01 = test: as above
HLA-B*35:01 = test: as above
HLA-A*01:01 = test: IEDB peptide-MHC binding, purified MHC/direct/fluorescence; filed as Kd, often an IC50 or EC50 that approximates it; ≥ and ≤ were set here for values at or beyond the usual limits of such assays
HLA-A*26:01 [10] = test: as above
HLA-B*27:05 = test: IEDB peptide-MHC binding, purified MHC/competitive/fluorescence; filed as Kd, often an IC50 or EC50 that approximates it; ≥ and ≤ were set here for values at or beyond the usual limits of such assays
HLA-C*03:03 = test: IEDB peptide-MHC binding, purified MHC/direct/fluorescence; filed as Kd, often an IC50 or EC50 that approximates it; ≥ and ≤ were set here for values at or beyond the usual limits of such assays; conditions: source organism: Bacillus anthracis str. A0488
HLA-B*58:01 = test: IEDB peptide-MHC binding, purified MHC/competitive/fluorescence; filed as Kd, often an IC50 or EC50 that approximates it; ≥ and ≤ were set here for values at or beyond the usual limits of such assays
HLA-A*02:19 [11] = test: IEDB peptide-MHC binding, purified MHC/direct/fluorescence; filed as Kd, often an IC50 or EC50 that approximates it; ≥ and ≤ were set here for values at or beyond the usual limits of such assays
HLA-A*03:01 [12] = test: as above
HLA-A*68:02 [13] = test: as above
HLA-B*40:01 = test: as above; conditions: source organism: Ebola virus - Gabon (1994-1997)
HLA-A*02:03 [14] = test: as above; conditions: source organism: Ravn virus - Ravn, Kenya, 1987
HLA-A*02:11 [15] = test: as above; conditions: source organism: Ravn virus - Ravn, Kenya, 1987
HLA-A*02:12 [16] = test: as above; conditions: source organism: Ravn virus - Ravn, Kenya, 1987
HLA-A*02:16 [17] = test: as above; conditions: source organism: Ravn virus - Ravn, Kenya, 1987
HLA-A*24:03 [18] = test: as above; conditions: source organism: Ravn virus - Ravn, Kenya, 1987
HLA-C*14:02 = test: as above; conditions: source organism: Mycobacterium tuberculosis H37Rv
HLA-C*15:02 = test: as above; conditions: source organism: Mycobacterium tuberculosis H37Rv
[19] = source organism: Giardia lamblia ATCC 50803
[20] = source organism: Bacillus anthracis str. A2012
[21] = source organism: Mycobacterium tuberculosis variant bovis BCG str. Pasteur 1173P2
[22] = source organism: Zaire ebolavirus
[23] = source organism: Salmonella enterica subsp. enterica serovar Typhi str. CT18
[24] = source organism: Vibrio parahaemolyticus AQ3810
[25] = source organism: Escherichia coli 536
[26] = source organism: Vibrio vulnificus CMCP6
[27] = source organism: Sudan ebolavirus - Maleo (1979)
[28] = source organism: Ravn virus - Ravn, Kenya, 1987
[29] = source organism: Mycobacterium tuberculosis H37Rv

Sequence: DEYGPVFVE
Kd (HLA-A*02:01; [19]): ≥ 20 µM | Kd (HLA-A*02:03 [1]; [19]): ≥ 20 µM | Kd (HLA-A*02:11 [2]; [19]): ≥ 20 µM | Kd (HLA-A*02:12 [3]; [19]): ≥ 20 µM | Kd (HLA-A*02:16 [4]; [19]): ≥ 20 µM | Kd (HLA-A*02:19 [5]; [19]): ≥ 20 µM | Kd (HLA-A*03:01 [6]; [19]): ≥ 20 µM | Kd (HLA-A*23:01; [19]): ≥ 20 µM | Kd (HLA-A*24:03 [7]; [19]): ≥ 20 µM | Kd (HLA-A*26:01 [8]; [19]): ≥ 20 µM | Kd (HLA-A*29:02; [19]): ≥ 20 µM | Kd (HLA-A*68:02 [9]; [19]): ≥ 20 µM | Kd (HLA-A*69:01; [19]): ≥ 20 µM | Kd (HLA-B*15:01; [19]): ≥ 20 µM | Kd (HLA-B*15:17; [19]): ≥ 20 µM | Kd (HLA-B*18:01; [19]): 0.0861 µM | Kd (HLA-B*27:03; [19]): ≥ 20 µM | Kd (HLA-B*39:01; [19]): ≥ 20 µM | Kd (HLA-B*46:01; [19]): ≥ 20 µM | Kd (HLA-B*51:01; [19]): ≥ 20 µM | Kd (HLA-B*57:01; [19]): ≥ 20 µM

Sequence: FVAAGAFHM
Kd (HLA-A*26:01 [8]; [20]): 0.278 µM | Kd (HLA-B*35:01; [20]): 0.0037 µM

Sequence: FVARIDLGY
Kd (HLA-A*01:01; [21]): 0.603 µM | Kd (HLA-A*26:01 [10]; [21]): 0.0199 µM | Kd (HLA-B*35:01; source organism: Mycobacterium tuberculosis C): 0.0142 µM

Sequence: GRITVSTKR
Kd (HLA-B*27:05; source organism: Influenza A virus (A/CHU/2-524/2005(H3N2))): 0.315 µM

Sequence: ITLPISASL
Kd (HLA-C*03:03): ≤ 0.001 µM | Kd (HLA-B*58:01; source organism: Bacillus anthracis str. A0488): 0.114 µM

Sequence: KQIPIWLPL
Kd (HLA-A*02:19 [11]; [22]): ≥ 20 µM | Kd (HLA-A*03:01 [12]; [22]): ≥ 20 µM | Kd (HLA-A*68:02 [13]; [22]): ≥ 20 µM | Kd (HLA-B*40:01): 0.0009 µM | Kd (HLA-A*26:01 [8]; [22]): ≥ 20 µM | Kd (HLA-A*69:01; [22]): ≥ 20 µM | Kd (HLA-B*27:05; [22]): 0.316 µM | Kd (HLA-B*51:01; [22]): ≥ 20 µM | Kd (HLA-B*57:01; [22]): ≥ 20 µM

Sequence: KSKPRIHGY
Kd (HLA-A*02:01; [23]): ≥ 20 µM | Kd (HLA-A*02:03 [1]; [23]): ≥ 20 µM | Kd (HLA-A*02:11 [2]; [23]): ≥ 20 µM | Kd (HLA-A*02:12 [3]; [23]): ≥ 20 µM | Kd (HLA-A*02:16 [4]; [23]): ≥ 20 µM | Kd (HLA-A*02:19 [5]; [23]): ≥ 20 µM | Kd (HLA-A*03:01 [6]; [23]): ≥ 20 µM | Kd (HLA-A*23:01; [23]): ≥ 20 µM | Kd (HLA-A*24:03 [7]; [23]): ≥ 20 µM | Kd (HLA-A*26:01 [8]; [23]): ≥ 20 µM | Kd (HLA-A*29:02; [23]): ≥ 20 µM | Kd (HLA-A*68:02 [9]; [23]): ≥ 20 µM | Kd (HLA-A*69:01; [23]): ≥ 20 µM | Kd (HLA-B*18:01; [23]): ≥ 20 µM | Kd (HLA-B*27:03; [23]): ≥ 20 µM | Kd (HLA-B*39:01; [23]): ≥ 20 µM | Kd (HLA-B*46:01; [23]): ≥ 20 µM | Kd (HLA-B*51:01; [23]): ≥ 20 µM | Kd (HLA-B*57:01; [23]): 0.169 µM

Sequence: KTNRTGLLM
Kd (HLA-B*58:01; source organism: Bacillus cereus G9241): 0.0913 µM

Sequence: KVGYFQHGA
Kd (HLA-A*02:01; [24]): ≥ 20 µM | Kd (HLA-A*02:03 [1]; [24]): ≥ 20 µM | Kd (HLA-A*02:12 [3]; [24]): 0.171 µM | Kd (HLA-A*02:16 [4]; [24]): ≥ 20 µM | Kd (HLA-A*02:19 [5]; [24]): ≥ 20 µM | Kd (HLA-A*03:01 [6]; [24]): ≥ 20 µM | Kd (HLA-A*23:01; [24]): ≥ 20 µM | Kd (HLA-A*24:03 [7]; [24]): ≥ 20 µM | Kd (HLA-A*26:01 [8]; [24]): ≥ 20 µM | Kd (HLA-A*29:02; [24]): ≥ 20 µM | Kd (HLA-B*15:01; [24]): ≥ 20 µM | Kd (HLA-B*15:17; [24]): ≥ 20 µM | Kd (HLA-B*18:01; [24]): ≥ 20 µM | Kd (HLA-B*27:03; [24]): ≥ 20 µM | Kd (HLA-B*39:01; [24]): ≥ 20 µM | Kd (HLA-B*46:01; [24]): ≥ 20 µM | Kd (HLA-B*51:01; [24]): ≥ 20 µM | Kd (HLA-B*57:01; [24]): ≥ 20 µM

Kd (HLA-A*24:03 [7]; [25]): 0.0002 µM | Kd (HLA-B*15:01; [25]): 0.223 µM | Kd (HLA-B*58:01; [25]): 0.046 µM
Sequence: QMLPGYFRF

Sequence: VRFANELSF
Kd (HLA-B*27:05; source organism: Bacillus cereus H3081.97): 0.0996 µM

Sequence: WLAGFEPSE
Kd (HLA-A*02:01; [26]): ≥ 20 µM | Kd (HLA-A*02:03 [1]; [26]): ≥ 20 µM | Kd (HLA-A*02:11 [2]; [26]): ≥ 20 µM | Kd (HLA-A*02:12 [3]; [26]): 0.453 µM | Kd (HLA-A*02:19 [5]; [26]): ≥ 20 µM | Kd (HLA-A*03:01 [6]; [26]): ≥ 20 µM | Kd (HLA-A*23:01; [26]): ≥ 20 µM | Kd (HLA-A*24:03 [7]; [26]): ≥ 20 µM | Kd (HLA-A*26:01 [8]; [26]): ≥ 20 µM | Kd (HLA-A*29:02; [26]): ≥ 20 µM | Kd (HLA-B*15:01; [26]): ≥ 20 µM | Kd (HLA-B*18:01; [26]): ≥ 20 µM | Kd (HLA-B*27:03; [26]): ≥ 20 µM | Kd (HLA-B*39:01; [26]): ≥ 20 µM | Kd (HLA-B*46:01; [26]): ≥ 20 µM | Kd (HLA-B*51:01; [26]): ≥ 20 µM | Kd (HLA-B*57:01; [26]): ≥ 20 µM

Sequence: YSGNIVHRY
Kd (HLA-A*01:01; [27]): 0.0896 µM | Kd (HLA-A*02:03 [14]): ≥ 20 µM | Kd (HLA-A*02:11 [15]): ≥ 20 µM | Kd (HLA-A*02:12 [16]): ≥ 20 µM | Kd (HLA-A*02:16 [17]): ≥ 20 µM | Kd (HLA-A*02:19 [11]; [28]): ≥ 20 µM | Kd (HLA-A*03:01 [12]; [28]): ≥ 20 µM | Kd (HLA-A*24:03 [18]): ≥ 20 µM | Kd (HLA-A*26:01 [10]; [27]): 1.55 µM | Kd (HLA-A*68:02 [13]; [28]): ≥ 20 µM | Kd (HLA-A*02:01; [22]): ≥ 20 µM | Kd (HLA-A*69:01; [22]): ≥ 20 µM | Kd (HLA-B*27:03; [22]): ≥ 20 µM | Kd (HLA-B*39:01; [22]): ≥ 20 µM | Kd (HLA-B*46:01; [22]): ≥ 20 µM | Kd (HLA-B*51:01; [22]): ≥ 20 µM | Kd (HLA-B*58:01; [22]): 0.0647 µM

Sequence: YVRTNGASY
Kd (HLA-A*26:01 [10]; source organism: Mycobacterium tuberculosis): 0.026 µM | Kd (HLA-C*14:02): 0.353 µM | Kd (HLA-C*15:02): ≥ 20 µM | Kd (HLA-B*35:01; [29]): 0.0646 µM | Kd (HLA-B*46:01; [29]): 2.22 µM

Reference: the Immune Epitope Database (IEDB)
